Target: Ipf1 (RSV-Ipf1 expression vector) (Mus musculus) (UniProt P52946)
Assay: cell_activity
Conditions: betaTC1 cells with RSV-Ipf1; in CHO cells Ipf1 raised activity to the betaTC1 level (about 3-fold over CHO)

## 5x P1 site linked to beta-globin TATA box reporter
  activity: 2 fold

— patent US20020082410
